# Read-outs that look alike come from different tables or passages of the source.
# Key:
# [1] = molecular target: transferrin (TF) (Homo sapiens) (UniProt P02787); conditions: ELISA, SB18, 37 C
# [2] = tested on: KRAS G12D G12D, P01116-2; conditions: ELISA, SB18, 37 C
# [3] = molecular target: transferrin (TF) (Homo sapiens) (UniProt P02787); conditions: Nap-dU at n (6) positions; ELISA, SB18, 37 C
# [4] = tested on: KRAS G12D G12D, P01116-2; conditions: Nap-dU at n (6) positions; ELISA, SB18, 37 C
# [5] = molecular target: human serum albumin (HSA) (Homo sapiens) (UniProt P02768); conditions: ELISA, SB18, 37 C
# [6] = tested on: KRAS G12C G12C, P01116-2; conditions: Nap-dU at n (6) positions [4,9,13,19,26,27,28,30,39]; ELISA, SB18, 37 C; text p364 misprints unit/protein
# [7] = tested on: KRAS G12D G12D, P01116-2; experiment: BLI; conditions: Nap-dU at n (6) positions [4,9,13,19,26,27,28,30,39]; SB18, 37 C, immobilised biotin ligand
# [8] = tested on: KRAS G12V G12V, P01116-2; conditions: Nap-dU at n (6) positions [28,30,39,40,41,45,46,47,54,57]; ELISA, SB18, 37 C
# [9] = molecular target: CD3 delta/epsilon heterodimer (UniProt P04234+P07766); conditions: Nap-dU at n (6) positions [Nap-dU at 1,6,7,8,9,12,18,19,20,23,32]; ELISA, SB18, 37 C
# [10] = Nap-dU at n (6) positions [17,23,30,31,32,44]
# [11] = Nap-dU at n (6) positions [Nap-dU at 2,6,8,9,11,16,17,22,24,27,35]
# [12] = Nap-dU at n (6) positions [4,9,13,19,26,27,28,30,39]
# [13] = Nap-dU at n (6) positions [22,28,35,36,37,49]
# [14] = Nap-dU at n (6) positions [5,10,14,20,27,28,29,31,40]
# Chain of transferrin (TF) (Homo sapiens) (P02787 20-698): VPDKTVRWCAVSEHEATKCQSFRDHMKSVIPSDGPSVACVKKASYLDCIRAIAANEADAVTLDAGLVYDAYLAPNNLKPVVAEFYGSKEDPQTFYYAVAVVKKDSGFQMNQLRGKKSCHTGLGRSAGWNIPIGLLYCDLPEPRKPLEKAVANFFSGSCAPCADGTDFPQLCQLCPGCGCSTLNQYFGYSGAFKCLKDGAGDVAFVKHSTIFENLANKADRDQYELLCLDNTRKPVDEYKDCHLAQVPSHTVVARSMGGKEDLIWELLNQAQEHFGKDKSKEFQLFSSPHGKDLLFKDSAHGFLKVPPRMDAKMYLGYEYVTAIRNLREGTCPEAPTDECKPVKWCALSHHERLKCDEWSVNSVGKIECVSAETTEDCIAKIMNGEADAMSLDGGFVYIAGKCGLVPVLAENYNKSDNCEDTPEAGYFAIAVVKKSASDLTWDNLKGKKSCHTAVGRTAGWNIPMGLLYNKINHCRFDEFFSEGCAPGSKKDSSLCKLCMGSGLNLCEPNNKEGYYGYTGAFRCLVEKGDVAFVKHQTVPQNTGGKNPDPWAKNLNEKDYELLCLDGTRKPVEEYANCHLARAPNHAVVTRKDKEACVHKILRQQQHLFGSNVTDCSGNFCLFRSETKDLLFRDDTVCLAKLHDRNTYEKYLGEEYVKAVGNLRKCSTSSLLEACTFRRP
# Chain of CD3 delta/epsilon heterodimer (P04234 22-105, stated change not applied, chain 1 of 2): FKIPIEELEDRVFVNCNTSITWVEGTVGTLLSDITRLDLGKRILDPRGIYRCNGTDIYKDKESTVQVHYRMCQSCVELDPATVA
# Chain of CD3 delta/epsilon heterodimer (P07766 23-126, stated change not applied, chain 2 of 2): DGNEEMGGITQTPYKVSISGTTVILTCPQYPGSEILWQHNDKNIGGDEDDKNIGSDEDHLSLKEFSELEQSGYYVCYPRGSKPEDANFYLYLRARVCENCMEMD
sequence,measurement,setting,value
ACCGTCTGCCTGAAAGTCCGGATGGCAGCTTTACAGGCAGAACTAACG [TD007],Kd,[1]; [10],431 nM
same,Kd,[2]; [10],2120 nM
ATGCCTCTTCTGCAGTTACGGTGTGATCGCCCAATAGCAGCCAC [TD012],Kd,[1]; [11],14.9 nM
same,Kd,[2]; [11],1310 nM
CAGGNCGAGCNGNACGCGNGNGNGACCNGAAGAC [TD013],Kd,[3],646 nM
same,Kd,[4],1550 nM
GACTAGCATAAGTCCGGATGGCAGCTTTATGCCGACCAT [AD005],Kd,[5]; [12],122 nM
same,Kd,[2]; [12],22.9 nM
same,Kd,[6],2.5 nM
same,Kd,[7],35.5 nM
GAGTGACCGTCTGCCTGAAAGTCCGGATGGCAGCTTTACAGGCAGAACTAACG [TD006],Kd,[1]; [13],968 nM
same,Kd,[2]; [13],628 nM
GAGTGACCGTCTGCCTGAGCAGGAGGATGTGACACAACTTTGCATTTCAAGCCTGATCAGCCACACCACCAGCC [AV001],Kd,"[5]; Nap-dU at n (6) positions [28,30,39,40,41,45,46,47,54,57]",11.2 nM
same,Kd,[8],58 nM
GGACTAGCATAAGTCCGGATGGCAGCTTTATGCCGACCAT [TD003],Kd,[1]; [14],141 nM
same,Kd,[2]; [14],2720 nM
TGCCCTTTTAATCCGACTTTAATGGCCACGCTCAC [AA004],Kd,"[5]; Nap-dU at n (6) positions [Nap-dU at 1,6,7,8,9,12,18,19,20,23,32]",9.54 nM
same,Kd,[9],10.2 nM

# Source: patent US20230220399
